Assay results taken from the Human Domainome abundance scans (Beltran et al. 2025).

B1: Lysine-specific demethylase 2B, residues 656 to 722; numbered along this chain, Q8NHM5 (parent)
chain: LPHTAVCLVCGEAGKEDTVEEEEGKFNLMLMECSICNEIIHPGCLKIKESEGVVNDELPNCWECPKC
B2: Dystrobrevin alpha, residues 235 to 294; numbered along this chain, Q9Y4J8 (parent)
chain: ENVFHPVECSYCHSESMMGFRYRCQQCHNYQLCQDCFWRGHAGGSHSNQHQMKEYTSWKS

Variants of: B1
Test: abundance fitness (aPCA) (normalised: wild type 0, dead -1); higher = more abundant; growth selection in yeast, the domain comes from the species named
Conditions: Homo sapiens

Abundance fitness: each site, then its substitutions
E63: S -0.223, T 0.102, W -0.386, R -0.031, Y -0.263, V 0.039
C64: K -0.749, H 0.218, G -0.889, I -0.778, Y -0.804, D -0.85, L -0.935, F -0.719, W -0.775, T -0.952, A -1.05, Q -0.662, E -0.718, V -0.95, S -0.797, R -0.888, M -0.923, P -0.684
K66: S -0.284, W -0.846, G -0.263, M -0.434, R -0.145, A -0.425, E -0.058, V -0.173, D -0.064, P -0.049, L -0.705, Q -0.551, T -0.079, C -0.819
C67: A -0.676, G -0.992, L -1.03, R -1.26, H -0.28, K -0.667, E -0.596, P -0.867, Y -1.08, T -0.462, W -1.43
P65: D -0.547, A -0.133, Q -0.454, E -0.148, F -0.401, T -0.634, C -0.384, L -0.606, R -0.364, I -0.899, W -0.432, V -0.503, H -0.289, S -0.177

Variants of: B2
Test: as above
Conditions: Homo sapiens

Abundance fitness: each site, then its substitutions
N2: W -0.285, M 0.092, V -0.129, L -0.158, Q 0.019, T 0.049, D -0.599, E 0.032, R -0.109, C -0.33, Y -0.035, P -0.09, A 0.066, F -0.121, K -0.007, H -0.394
V7: C 0.004, N 0.154, K -0.086, M -0.08, G -0.085, L -0.045, F -0.428, P -0.009, D -0.012, I -0.023, H -0.055, E 0.012, A 0.063
P6: L -0.176, D 0.079, I -0.039, F -0.091, Y -0.218, M -0.071, V -0.089, E -0.045, Q -0.191, N 0.049, A 0.07, C -0.137, R -0.029, W -0.127, G -0.063
E1: V -0.211, D 0.028, Y 0.014, G -0.336, A -0.257, S -0.183, P -0.076, K -0.248, T -0.166, R -0.462, C 0.297, M -0.377
F4: V -0.01, S -0.14, C 0.009, N 0.037, I 0.19, T 0.06, M -0.043, P -0.107, G -0.014, W -0.224, L -0.039, A -0.049, Q -0.152, D 0.108, R -0.081, H -0.059, Y 0.084
H5: W -0.143, E 0.145, F -0.201, Q -0.195, G -0.127, L -0.125, K -0.028, M -0.114, C -0.024, R -0.176, A -0.195, I 0.321, N 0.259, P -0.102
V3: A -0.075, R 0.011, N 0.149, L 0.096, G -0.217, P 0.083, E 0.053, F -0.248, C 0.118, Q 0.106, W -0.34, M 0.067, K 0.213, I -0.006, S 0.134, D 0.011, Y 0.018
